Substitutions are numbered along the chain they refer to. In names and notes the source's numbering stands.
B1: PG-inhibiting protein 2 of Phaseolus vulgaris pv Pinto (PvPGIP2) (natural protein)
chain: ELCNPQDKQALLQIKKDLGNPTTLSSWLPTTDCCNRTWLGVLCDTDTQTYRVNNLDLSGLNLPKPYPIPSSLANLPYLNFLYIGGINNLVGPIPPAIAKLTQLHYLYITHTNVSGAIPDFLSQIKTLVTLDFSYNALSGTLPPSISSLPNLVGITFDGNRISGAIPDSYGSFSKLFTSMTISRNRLTGKIPPTFANLNLAFVDLSRNMLEGDASVLFGSDKNTQKIHLAKNSLAFDLGKVGLSKNLNGLDLRNNRIYGTLPQGLTQLKFLHSLNVSFNNLCGEIPQGGNLQRFDVSAYANNKCLCGSPLPACT
B2: PvPGIP2.Q224K (natural protein)
chain: B1 chain with Q224K
B3: PvPGIP2.Q224E (natural protein)
chain: B1 chain with Q224E

Legend:
[1] = molecular target: T1, FpPG.S363K (Fusarium phyllophilum) (UniProt Q07181)
T1 sequence: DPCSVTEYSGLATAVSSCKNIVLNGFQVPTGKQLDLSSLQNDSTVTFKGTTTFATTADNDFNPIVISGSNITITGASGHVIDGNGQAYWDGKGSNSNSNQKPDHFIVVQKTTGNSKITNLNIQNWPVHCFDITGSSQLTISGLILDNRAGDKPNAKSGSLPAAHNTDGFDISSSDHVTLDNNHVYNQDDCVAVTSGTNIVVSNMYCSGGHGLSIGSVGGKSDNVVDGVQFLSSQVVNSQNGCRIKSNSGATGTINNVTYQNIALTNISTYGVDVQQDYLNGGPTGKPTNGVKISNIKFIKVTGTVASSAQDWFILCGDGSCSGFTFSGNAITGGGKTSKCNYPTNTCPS

[2] = molecular target: Polygalacturonase 1 of Colletotrichum lupini (CluPG1) strain SHK78813 (Colletotrichum lupini)
[3] = molecular target: T2, polygalacturonase of Fusarium phyllophilum (FpPG) (Fusarium phyllophilum) (UniProt Q07181)
T2 sequence: T1 sequence with K339S

[4] = molecular target: T3, FpPG.K310T (Fusarium phyllophilum) (UniProt Q07181)
T3 sequence: T1 sequence with K286T, K339S

[5] = molecular target: T4, FpPG.L303E (Fusarium phyllophilum) (UniProt Q07181)
T4 sequence: T1 sequence with L279E, K339S

[6] = molecular target: T5, FpPG.A274T (Fusarium phyllophilum) (UniProt Q07181)
T5 sequence: T1 sequence with A250T, K339S

[7] = molecular target: T6, FpPG.S120N-N121K-S122D (Fusarium phyllophilum) (UniProt Q07181)
T6 sequence: T1 sequence with S96N, N97K, S98D, K339S

| Binder | amount of PGIP causing 50% inhibition of one agarose diffusion unit of the PG (agar diffusion assay) [1] [pg] | amount of PGIP causing 50% inhibition of one agarose diffusion unit of the PG (agar diffusion assay) [2] [pg] | amount of PGIP causing 50% inhibition of one agarose diffusion unit of the PG (agar diffusion assay) [3] [pg] | amount of PGIP causing 50% inhibition of one agarose diffusion unit of the PG (agar diffusion assay) [4] [pg] | amount of PGIP causing 50% inhibition of one agarose diffusion unit of the PG (agar diffusion assay) [5] [pg] | fold loss of inhibition by PvPGIP2 against wild type FpPG, agar diffusion assay (Figure 5A) [6] [fold] | fold reduction of the efficiency of inhibition by PvPGIP2 against wild type FpPG, agar diffusion assay (Figure 5A) [7] [fold] | amount of PGIP causing 50% inhibition of one agarose diffusion unit of the PG (agar diffusion assay); ∞ indicates > 1500 ng [1] [pg] | amount of PGIP causing 50% inhibition of one agarose diffusion unit of the PG (agar diffusion assay); ∞ indicates > 1500 ng [3] [pg] | amount of PGIP causing 50% inhibition of one agarose diffusion unit of the PG (agar diffusion assay); ∞ indicates > 1500 ng [4] [pg] |
| --- | --- | --- | --- | --- | --- | --- | --- | --- | --- | --- |
| B1 | 2000 | 2500 | 2000 | 2000 | 2000 | 150 | 25 | – | – | – |
| B2 | – | 2500 | – | – | 20000 | – | – | > 1.5e+06 | > 1.5e+06 | > 1.5e+06 |
| B3 | 2000 | 1100 | 2000 | 2000 | 2000 | – | – | – | – | – |

From publication PMC3834070
